According to article PMC10757996:

What was measured:
[1] = molecular target: Arginylglycylaspartic acid (RGD) peptide grafted on poly-L-lysine-graft-poly(ethylene glycol) (PLL-g-PEG/PEG-RGD); experiment: SPR; Goos-Hänchen lateral position shift read-out on a silver-GST plasmonic substrate; PLL-PEG-RGD immobilised on the GST layer through MPTES; 10 μg/mL integrin proteoliposomes flowed over; running buffer 1:10 dilution of PBS; highest Mn2+ concentration of the series (1 mM); exponential fits of association and dissociation
[2] = molecular target: Arginylglycylaspartic acid (RGD) peptide grafted on poly-L-lysine-graft-poly(ethylene glycol) (PLL-g-PEG/PEG-RGD); experiment: SPR; Goos-Hänchen lateral position shift read-out on a silver-GST plasmonic substrate; PLL-PEG-RGD immobilised on the GST layer through MPTES; 10 μg/mL integrin proteoliposomes flowed over; running buffer 1:10 dilution of PBS; lowest Mn2+ concentration of the series (1 nM); exponential fits of association and dissociation

**Q.** How did the kobs [1] turn out when “αIIbβ3 integrin reconstituted into liposomes (integrin-embedded proteoliposomes) (from UniProt P08514 32-1039; P05106 27-788) (complex)” was run?
**A.** 0.146 min⁻¹

**Q.** And the koff [1]?
**A.** 0.00448 s⁻¹

**Q.** What about the kobs [2] of the same substance?
**A.** 0.101 min⁻¹

**Q.** What about the koff [2] of the same substance?
**A.** 0.00957 s⁻¹
